Earlier results as cited in article PMC9377792.

Target: uPAR (Homo sapiens) (UniProt Q03405)
UniProt Q03405, sequence (Q03405 23-305): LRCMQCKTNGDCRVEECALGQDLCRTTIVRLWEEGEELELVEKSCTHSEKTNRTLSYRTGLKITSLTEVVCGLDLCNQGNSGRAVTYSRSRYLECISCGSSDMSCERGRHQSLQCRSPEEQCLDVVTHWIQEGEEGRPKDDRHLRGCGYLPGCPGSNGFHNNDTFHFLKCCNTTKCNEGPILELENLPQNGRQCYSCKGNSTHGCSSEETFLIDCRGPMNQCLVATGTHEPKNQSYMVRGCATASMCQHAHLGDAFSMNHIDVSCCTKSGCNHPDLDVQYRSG

In the case of Factor XII (from UniProt P00748), the Kd is given as 37.1 nM.
